Experimental data reported in patent US20250352667A1.
Each block holds one binder with its values, some of them ahead of it.

What was measured:
[1] = biological target: KEAP1 (wild-type full-length), His-tagged (human) (UniProt Q14145); assay: AlphaScreen; 4.8 nM FLAG-NRF2, 150 nM His-KEAP1; Rep 2; control for I28V
[2] = biological target: KEAP1 (wild-type full-length), His-tagged (human) (UniProt Q14145); assay: AlphaScreen; 38.4 nM FLAG-NRF2, 150 nM His-KEAP1; Rep 1; control for I28V
[3] = biological target: KEAP1 (wild-type full-length), His-tagged (human) (UniProt Q14145); assay: AlphaScreen; 153.6 nM FLAG-NRF2, 150 nM His-KEAP1; Rep 1; control for I28V
[4] = biological target: KEAP1 (wild-type full-length), His-tagged (human) (UniProt Q14145); assay: AlphaScreen; 614.4 nM FLAG-NRF2, 150 nM His-KEAP1; Rep 2; control for I86V
[5] = biological target: KEAP1 (wild-type full-length), His-tagged (human) (UniProt Q14145); assay: AlphaScreen; 1228.8 nM FLAG-NRF2, 150 nM His-KEAP1; Rep 1; control for I28V
[6] = biological target: KEAP1 (wild-type full-length), His-tagged (human) (UniProt Q14145); assay: AlphaScreen; 38.4 nM FLAG-NRF2, 150 nM His-KEAP1; Repeat 1 (same value as in Table 26)
[7] = biological target: KEAP1 (wild-type full-length), His-tagged (human) (UniProt Q14145); assay: AlphaScreen; 76.8 nM FLAG-NRF2, 150 nM His-KEAP1; signal against NRF2 only; control for I28V
[8] = biological target: KEAP1 (wild-type full-length), His-tagged (human) (UniProt Q14145); assay: AlphaScreen; 38.4 nM FLAG-NRF2, 150 nM His-KEAP1; signal against NRF2 only; control for I86V
[9] = biological target: KEAP1 (wild-type full-length), His-tagged (human) (UniProt Q14145); assay: AlphaScreen; 76.8 nM FLAG-NRF2, 150 nM His-KEAP1; signal against NRF2 only; control for I86V
[10] = biological target: KEAP1 (wild-type full-length), His-tagged (human) (UniProt Q14145); assay: AlphaScreen; FLAG-NRF2 wt isoform 1 19.2 nM, His-KEAP1 150 nM; Rep 1; positive control for Q75R
[11] = biological target: KEAP1 (wild-type full-length), His-tagged (human) (UniProt Q14145); assay: AlphaScreen; FLAG-NRF2 wt isoform 1 307.2 nM, His-KEAP1 150 nM; Rep 1; positive control for Q75R
[12] = biological target: KEAP1 (wild-type full-length), His-tagged (human) (UniProt Q14145); assay: AlphaScreen; FLAG-NRF2 wt isoform 1 307.2 nM, His-KEAP1 150 nM; Rep 2; positive control for Q75R
[13] = biological target: KEAP1 (wild-type full-length), His-tagged (human) (UniProt Q14145); assay: AlphaScreen; FLAG-NRF2 wt isoform 1 9.6 nM, His-KEAP1 150 nM; Repeat 1; positive control for Q75R
[14] = biological target: KEAP1 (wild-type full-length), His-tagged (human) (UniProt Q14145); assay: AlphaScreen; NRF2 wt isoform 1 4.8 nM, KEAP1 150 nM; signal against NRF2-only control; control for Q75R
[15] = biological target: KEAP1 (wild-type full-length), His-tagged (human) (UniProt Q14145); assay: AlphaScreen; FLAG-NRF2 I86V 2.4 nM, His-KEAP1 150 nM; Rep 1
[16] = biological target: KEAP1 (wild-type full-length), His-tagged (human) (UniProt Q14145); assay: AlphaScreen; FLAG-NRF2 I86V 2.4 nM, His-KEAP1 150 nM; Rep 3
[17] = biological target: KEAP1 (wild-type full-length), His-tagged (human) (UniProt Q14145); assay: AlphaScreen; FLAG-NRF2 I86V 9.6 nM, His-KEAP1 150 nM; Rep 2
[18] = biological target: KEAP1 (wild-type full-length), His-tagged (human) (UniProt Q14145); assay: AlphaScreen; FLAG-NRF2 I86V 38.4 nM, His-KEAP1 150 nM; Rep 2
[19] = biological target: KEAP1 (wild-type full-length), His-tagged (human) (UniProt Q14145); assay: AlphaScreen; FLAG-NRF2 I86V 153.6 nM, His-KEAP1 150 nM; Rep 3
[20] = biological target: KEAP1 (wild-type full-length), His-tagged (human) (UniProt Q14145); assay: AlphaScreen; FLAG-NRF2 I86V 614.4 nM, His-KEAP1 150 nM; Rep 2
[21] = biological target: KEAP1 (wild-type full-length), His-tagged (human) (UniProt Q14145); assay: AlphaScreen; NRF2 I86V 1228.8 nM, KEAP1 150 nM; signal against NRF2-only control
[22] = biological target: KEAP1 (wild-type full-length), His-tagged (human) (UniProt Q14145); assay: AlphaScreen; mean over 9.6, 19.2 and 38.4 nM NRF2 I86V, KEAP1 150 nM; relative to wild-type NRF2 isoform 1
[23] = biological target: KEAP1 (wild-type full-length), His-tagged (human) (UniProt Q14145); assay: AlphaScreen; 19.2 nM FLAG-NRF2, 150 nM His-KEAP1; signal against NRF2 only
[24] = biological target: KEAP1 (wild-type full-length), His-tagged (human) (UniProt Q14145); assay: AlphaScreen; average of three conditions; against wild-type NRF2 isoform 1
[25] = biological target: KEAP1 (wild-type full-length), His-tagged (human) (UniProt Q14145); assay: AlphaScreen; 38.4 nM FLAG-NRF2, 150 nM His-KEAP1; against wild-type NRF2 isoform 1 = 100%
[26] = biological target: KEAP1 (wild-type full-length), His-tagged (human) (UniProt Q14145); assay: AlphaScreen; FLAG-NRF2 Q75R 1228.8 nM, His-KEAP1 150 nM; Rep 2
[27] = biological target: KEAP1 (wild-type full-length), His-tagged (human) (UniProt Q14145); assay: AlphaScreen; NRF2 Q75R 307.2 nM, KEAP1 150 nM; signal against NRF2-only control

KEAP1 (wild-type full-length), His-tagged (human), sequence (Q14145 2-624 limits assumed): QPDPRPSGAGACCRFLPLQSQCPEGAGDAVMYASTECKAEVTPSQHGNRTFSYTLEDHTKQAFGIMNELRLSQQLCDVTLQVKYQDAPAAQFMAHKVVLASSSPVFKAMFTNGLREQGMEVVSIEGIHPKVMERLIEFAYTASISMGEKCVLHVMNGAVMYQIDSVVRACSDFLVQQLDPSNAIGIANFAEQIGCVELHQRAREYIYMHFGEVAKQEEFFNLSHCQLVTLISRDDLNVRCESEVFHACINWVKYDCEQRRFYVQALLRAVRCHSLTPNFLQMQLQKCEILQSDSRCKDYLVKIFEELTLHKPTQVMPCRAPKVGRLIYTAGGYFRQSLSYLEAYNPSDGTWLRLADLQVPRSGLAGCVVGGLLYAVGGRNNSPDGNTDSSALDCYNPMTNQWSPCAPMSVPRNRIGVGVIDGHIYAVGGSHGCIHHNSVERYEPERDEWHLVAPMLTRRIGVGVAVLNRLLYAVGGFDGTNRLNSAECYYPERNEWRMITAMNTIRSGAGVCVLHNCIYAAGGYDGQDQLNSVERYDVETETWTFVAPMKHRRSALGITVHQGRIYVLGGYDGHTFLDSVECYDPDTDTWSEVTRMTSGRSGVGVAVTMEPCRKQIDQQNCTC

A-counts [1]: 1160 A-counts
A-counts [2]: 2000 A-counts
A-counts [3]: 1930 A-counts
A-counts [4]: 2520 A-counts
A-counts [5]: 1450 A-counts
A-counts [6]: 2000 A-counts
S/N [7]: 2.7
S/N [8]: 3
S/N [9]: 2.4
A-counts (NRF2 plus KEAP1) [10]: 1360 A-counts
A-counts (NRF2 plus KEAP1) [11]: 1560 A-counts
A-counts (NRF2 plus KEAP1) [12]: 1570 A-counts
A-counts (NRF2 plus KEAP1) [13]: 1024 A-counts
S/N [14]: 2.5
B1: NRF2 isoform 1 (wild-type full-length), FLAG-tagged (protein)
chain: MMDLELPPPGLPSQQDMDLIDILWRQDIDLGVSREVFDFSQRRKEYELEKQKKLEKERQEQLQKEQEKAFFAQLQLDEETGEFLPIQPAQHIQSETSGSANYSQVAHIPKSDALYFDDCMQLLAQTFPFVDDNEVSSATFQSLVPDIPGHIESPVFIATNQAQSPETSVAQVAPVDLDGMQQDIEQVWEELLSIPELQCLNIENDKLVETTMVPSPEAKLTEVDNYHFYSSIPSMEKEVGNCSPHFLNAFEDSFSSILSTEDPNQLTVNSLNSDATVNTDFGDEFYSAFIAEPSISNSMPSPATLSHSLSELLNGPIDVSDLSLCKAFNQNHPESTAEFNDSDSGISLNTSPSVASPEHSVESSSYGDTLLGLSDSEVEELDSAPGSVKQNGPKTPVHSSGDMVQPLSPSQGQSTHVHDAQCENTPEKELPVSPGHRKTPFTKDKHSSRLEAHLTRDELRAKALHIPFPVEKIINLPVVDFNEMMSKEQFNEAQLALIRDIRRRGKNKVAAQNCRKRKLENIVELEQDLDHLKDEKEKLLKEKGENDKSLHLLKKQLSTLYLEVFSMLRDEDGKPYSPSEYSLQQTRDGNVFLVPKSKKPDVKKN

A-counts (NRF2 plus KEAP1) [15]: 1730 A-counts
A-counts (NRF2 plus KEAP1) [16]: 1680 A-counts
A-counts (NRF2 plus KEAP1) [17]: 2610 A-counts
A-counts (NRF2 plus KEAP1) [18]: 2920 A-counts
A-counts (NRF2 plus KEAP1) [19]: 2500 A-counts
A-counts (NRF2 plus KEAP1) [20]: 1970 A-counts
S/N [21]: 0.9
Average Binding [22]: 96.8%
Avg. Reduction in Binding [22]: 3.2%
B2: NRF2 isoform 1 (I86V full-length), FLAG-tagged (protein)
chain: MMDLELPPPGLPSQQDMDLIDILWRQDIDLGVSREVFDFSQRRKEYELEKQKKLEKERQEQLQKEQEKAFFAQLQLDEETGEFLPVQPAQHIQSETSGSANYSQVAHIPKSDALYFDDCMQLLAQTFPFVDDNEVSSATFQSLVPDIPGHIESPVFIATNQAQSPETSVAQVAPVDLDGMQQDIEQVWEELLSIPELQCLNIENDKLVETTMVPSPEAKLTEVDNYHFYSSIPSMEKEVGNCSPHFLNAFEDSFSSILSTEDPNQLTVNSLNSDATVNTDFGDEFYSAFIAEPSISNSMPSPATLSHSLSELLNGPIDVSDLSLCKAFNQNHPESTAEFNDSDSGISLNTSPSVASPEHSVESSSYGDTLLGLSDSEVEELDSAPGSVKQNGPKTPVHSSGDMVQPLSPSQGQSTHVHDAQCENTPEKELPVSPGHRKTPFTKDKHSSRLEAHLTRDELRAKALHIPFPVEKIINLPVVDFNEMMSKEQFNEAQLALIRDIRRRGKNKVAAQNCRKRKLENIVELEQDLDHLKDEKEKLLKEKGENDKSLHLLKKQLSTLYLEVFSMLRDEDGKPYSPSEYSLQQTRDGNVFLVPKSKKPDVKKN

S/N [23]: 3.2
Reported Value (reduction in binding) [24]: 30.2%
Binding Percentage (%) [25]: 63.5%
B3: NRF2 isoform 1 (I28V full-length), FLAG-tagged (protein)
chain: MMDLELPPPGLPSQQDMDLIDILWRQDVDLGVSREVFDFSQRRKEYELEKQKKLEKERQEQLQKEQEKAFFAQLQLDEETGEFLPIQPAQHIQSETSGSANYSQVAHIPKSDALYFDDCMQLLAQTFPFVDDNEVSSATFQSLVPDIPGHIESPVFIATNQAQSPETSVAQVAPVDLDGMQQDIEQVWEELLSIPELQCLNIENDKLVETTMVPSPEAKLTEVDNYHFYSSIPSMEKEVGNCSPHFLNAFEDSFSSILSTEDPNQLTVNSLNSDATVNTDFGDEFYSAFIAEPSISNSMPSPATLSHSLSELLNGPIDVSDLSLCKAFNQNHPESTAEFNDSDSGISLNTSPSVASPEHSVESSSYGDTLLGLSDSEVEELDSAPGSVKQNGPKTPVHSSGDMVQPLSPSQGQSTHVHDAQCENTPEKELPVSPGHRKTPFTKDKHSSRLEAHLTRDELRAKALHIPFPVEKIINLPVVDFNEMMSKEQFNEAQLALIRDIRRRGKNKVAAQNCRKRKLENIVELEQDLDHLKDEKEKLLKEKGENDKSLHLLKKQLSTLYLEVFSMLRDEDGKPYSPSEYSLQQTRDGNVFLVPKSKKPDVKKN

A-counts (NRF2 plus KEAP1) [26]: 653 A-counts
S/N [27]: 1
B4: NRF2 isoform 1 (Q75R full-length), FLAG-tagged (protein)
chain: MMDLELPPPGLPSQQDMDLIDILWRQDIDLGVSREVFDFSQRRKEYELEKQKKLEKERQEQLQKEQEKAFFAQLRLDEETGEFLPIQPAQHIQSETSGSANYSQVAHIPKSDALYFDDCMQLLAQTFPFVDDNEVSSATFQSLVPDIPGHIESPVFIATNQAQSPETSVAQVAPVDLDGMQQDIEQVWEELLSIPELQCLNIENDKLVETTMVPSPEAKLTEVDNYHFYSSIPSMEKEVGNCSPHFLNAFEDSFSSILSTEDPNQLTVNSLNSDATVNTDFGDEFYSAFIAEPSISNSMPSPATLSHSLSELLNGPIDVSDLSLCKAFNQNHPESTAEFNDSDSGISLNTSPSVASPEHSVESSSYGDTLLGLSDSEVEELDSAPGSVKQNGPKTPVHSSGDMVQPLSPSQGQSTHVHDAQCENTPEKELPVSPGHRKTPFTKDKHSSRLEAHLTRDELRAKALHIPFPVEKIINLPVVDFNEMMSKEQFNEAQLALIRDIRRRGKNKVAAQNCRKRKLENIVELEQDLDHLKDEKEKLLKEKGENDKSLHLLKKQLSTLYLEVFSMLRDEDGKPYSPSEYSLQQTRDGNVFLVPKSKKPDVKKN
